Measurements taken from PMC1298937, “A Novel Endogenous Inhibitor of the Secreted Streptococcal NAD-Glycohydrolase” (PLoS Pathogens, 2005).

Legend:
[1] = target: T1, SPN secreted by S. pyogenes JRS4 (culture supernatant) (Streptococcus pyogenes strain JRS4 …); assay: enzyme inhibition kinetics (competitive model); apparent constant; purified IFS (up to 2.3 nM) with SPN from JRS4 culture supernatant (0.125 U/ml) and varying beta-NAD+ (up to 1.2 mM) in PBS at 37 C; fluorescence of residual beta-NAD+; simultaneous fit; settings: one partner purified
T1 chain: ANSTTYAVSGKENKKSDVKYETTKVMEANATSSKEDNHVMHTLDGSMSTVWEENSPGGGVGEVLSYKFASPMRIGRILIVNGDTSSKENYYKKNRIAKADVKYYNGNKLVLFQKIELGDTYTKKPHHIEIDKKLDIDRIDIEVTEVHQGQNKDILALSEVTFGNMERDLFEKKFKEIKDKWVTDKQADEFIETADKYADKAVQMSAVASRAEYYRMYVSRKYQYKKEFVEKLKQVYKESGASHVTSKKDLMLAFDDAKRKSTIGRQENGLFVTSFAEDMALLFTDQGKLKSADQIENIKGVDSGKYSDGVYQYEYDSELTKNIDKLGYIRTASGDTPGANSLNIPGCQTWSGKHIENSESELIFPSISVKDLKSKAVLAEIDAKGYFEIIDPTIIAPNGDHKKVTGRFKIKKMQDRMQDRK

[2] = target: 6X-His-tagged SPN (SPN-H) expressed from pMAM3.18 (Streptococcus pyogenes strain JRS4); assay: SEC + other: densitometry of SDS-PAGE; SPN-IFS complex assembled in vivo and purified from the cytoplasm of E. coli TOP10(pMAM3.18); Superdex 75 HR 10/30, 20 mM Tris pH 8.5, 100 mM NaCl; peak fractions on Coomassie-stained SDS-PAGE compared with known concentrations of purified SPN and IFS

B1: Immunity factor for SPN (IFS) with C-terminal c-myc and 6X-His tags (IFS-H), expressed from pMAM3.19 (natural protein)
chain: MYKVPKGLEHYQKMFQKEVTVNDLKKYLIGSDKEYRITRRDSYMGDISDPEVILEYGVYPAFIKGYTQLKANIEEALLEMSNSGQALDIYQAVQTLNAENMLLNYYESLPFYLNRQSILANITKALKDAHIREAMAHYKLGEFAHYQDTMLDMVERTIETF
notes: source: E. coli TOP10(pMAM3.19), arabinose-induced: cytoplasmic extract; purified (TALON, Resource Q); not shown: c-myc, C-terminal, kept; 6X-His, C-terminal, kept
Ki [1]: 2 nM
stoichiometry N [2]: 1
